The text below walks through data of article PMC4059961, “The transcriptional network of WRKY53 in cereals links oxidative responses to biotic and abiotic stress inputs”.

The series deals with SUMO::TaWRKY53 (Triticum aestivum L. cv. Gamtoos-R). Description: EMSA; Probe EMSA: 10 mM Tris, 50 mM KCl, 1 mM DTT, pH 7.5, 20 min, room temperature; 1-kb EMSA: 10 mM Tris, 100 mM KCl, 1 mM EDTA, 0.1 mM DTT, 5% glycerol, 0.01 mg/mL BSA, pH 7.5, room temperature. The settings on record: protein: recombinant; tags: N-terminal 6xHis-SUMO; label: biotin; blunt. (Mobility shift assays separate free from complexed probe on a gel.)
SUMO::TaWRKY53 (Triticum aestivum L. cv. Gamtoos-R), sequence (chain, as listed by the source): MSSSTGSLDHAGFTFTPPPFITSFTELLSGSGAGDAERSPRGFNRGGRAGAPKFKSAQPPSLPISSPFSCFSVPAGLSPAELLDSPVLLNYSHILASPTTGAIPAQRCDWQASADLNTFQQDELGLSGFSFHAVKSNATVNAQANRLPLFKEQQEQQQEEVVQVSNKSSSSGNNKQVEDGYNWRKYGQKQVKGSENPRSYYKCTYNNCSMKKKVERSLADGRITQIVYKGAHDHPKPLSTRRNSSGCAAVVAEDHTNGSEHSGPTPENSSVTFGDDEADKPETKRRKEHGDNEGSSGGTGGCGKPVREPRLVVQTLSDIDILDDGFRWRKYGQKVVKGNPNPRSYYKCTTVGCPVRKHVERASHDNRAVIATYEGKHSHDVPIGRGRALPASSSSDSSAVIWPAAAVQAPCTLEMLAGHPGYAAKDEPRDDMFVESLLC

B1: POC1 promoter probe (dsDNA)
DNA 1: ACGTAAATTTTTTGAATAAGACAAATGGTCAAACATGTAAGAAAAGAAAGTCAACGGCGTCATCTATTTAAAAAACGGAT
DNA 2: ATCCGTTTTTTAAATAGATGACGCCGTTGACTTTCTTTTCTTACATGTTTGACCATTTGTCTTATTCAAAAAATTTACGT
B1: the binding result is recorded as “binds”.

B2: ORK10 promoter probe (dsDNA)
DNA 1: ATCTGGTCAACAATGTATTACACACTGCTTTGACTACTTCCCCCAAAAAAGTACACACTGCTTTGACTCAGGTCAAACTT
DNA 2: AAGTTTGACCTGAGTCAAAGCAGTGTGTACTTTTTTGGGGGAAGTAGTCAAAGCAGTGTGTAATACATTGTTGACCAGAT
On to B2, for which the binding result is reported as “binds”.
